B1: ScctPheRS (Saccharomyces cerevisiae cytoplasmic PheRS; Yeast ct) (Saccharomyces cerevisiae S288C) (protein)
chain: SDFQLEILKKLDELDEIKSTLATFPQHGSQDVLSALNSLKAHNKLEFSKVDTVTYDLTKEGAQILNEGSYEIKLVKLIQELGQLQIKDVMSKLGPQVGKVGQARAFKNGWIAKNASNELELSAKLQNTDLNELTDETQSILAQIKNNSHLDSIDAKILNDLKKRKLIAQGKITDFNVTKGPEFSTDLTKLETDLTSDMVSTNAYKDLKFKPYNFNSQGVQISSGALHPLNKVREEFRQIFFSMGFTEMPSNQYVETGFWNFDALYVPQQHPARDLQDTFYIKDPLTADLPDDKTYMDNIKAVHEQGRFGSIGYRYNWKPEECQKLVLRTHSTAISARMLHDLAKDPKPTRLFSIDRVFRNEAVDATHLAEFHQVEGVLADYNITLGDLIKFMEEFFERMGVTGLRFKPTYNPYTEPSMEIFSWHEGLQKWVEIGNSGMFRPEMLESMGLPKDLRVLGWGLSLERPTMIKYKVQNIRELLGHKVSLDFIETNPAARLDEDLYE
notes: His-tagged purified cytoplasmic enzyme; (alpha beta)2 heterotetramer; with Phenylalanine--tRNA ligase beta subunit
B2: EcPheRS (E. coli phenylalanine-tRNA synthetase) (Escherichia coli K-12) (protein)
chain: MSHLAELVASAKAAISQASDVAALDNVRVEYLGKKGHLTLQMTTLRELPPEERPAAGAVINEAKEQVQQALNARKAELESAALNARLAAETIDVSLPGRRIENGGLHPVTRTIDRIESFFGELGFTVATGPEIEDDYHNFDALNIPGHHPARADHDTFWFDTTRLLRTQTSGVQIRTMKAQQPPIRIIAPGRVYRNDYDQTHTPMFHQMEGLIVDTNISFTNLKGTLHDFLRNFFEEDLQIRFRPSYFPFTEPSAEVDVMGKNGKWLEVLGCGMVHPNVLRNVGIDPEVYSGFAFGMGMERLTMLRYGVTDLRSFFENDLRFLKQFK
notes: His-tagged, from plasmid pQE31-EcFRS (pheS and pheT), dialysed against PPi; (alpha beta)2 heterotetramer; with Phenylalanine--tRNA ligase beta subunit

How the values were obtained:
Test in all cases: ATP/PPi exchange (amino acid activation)
[1] = substrate: N[C@@H](Cc1ccccc1)C(=O)O; type: biochemical, Saccharomyces cerevisiae; conditions: 2 mM ATP, 2 mM [32P]PPi, 10 mM MgCl2, pH 7.2, 37 °C, stereochemistry of Phe not given
Excerpt: (§1) ATP/PPi exchange (amino acid activation) on ScctPheRS (Saccharomyces cerevisiae cytoplasmic PheRS; Yeast ct)

[2] = substrate: NC(Cc1cccc(O)c1)C(=O)O; type: biochemical, Saccharomyces cerevisiae; conditions: 2 mM ATP, 2 mM [32P]PPi, 10 mM MgCl2, pH 7.2, 37 °C, D,L-m-Tyr varied 20-2000 µM
Excerpt: as §1

[3] = substrate: N[C@@H](Cc1ccccc1)C(=O)O; type: biochemical, Escherichia coli; conditions: 2 mM ATP, 2 mM [32P]PPi, 10 mM MgCl2, pH 7.2, 37 °C, stereochemistry of Phe not given
Excerpt: (§2) ATP/PPi exchange (amino acid activation) on EcPheRS (E. coli phenylalanine-tRNA synthetase)

[4] = substrate: NC(Cc1cccc(O)c1)C(=O)O; type: biochemical, Escherichia coli; conditions: 2 mM ATP, 2 mM [32P]PPi, 10 mM MgCl2, pH 7.2, 37 °C, D,L-m-Tyr varied 20-2000 µM
Excerpt: as §2

Row | Protein | Km [1] [µM] | kcat [1] [s⁻¹] | kcat/Km [1] [M⁻¹ s⁻¹] | Km [2] [µM] | kcat [2] [s⁻¹] | kcat/Km [2] [M⁻¹ s⁻¹] | Km [3] [µM] | kcat [3] [s⁻¹] | kcat/Km [3] [M⁻¹ s⁻¹] | Km [4] [µM] | kcat [4] [s⁻¹] | kcat/Km [4] [M⁻¹ s⁻¹]
1 | B1 | 16 ± 2 | 26 ± 4 | 1.6e+06 | 1150 ± 230 | 26 ± 4 | 23000 |  |  |  |  |  | 
2 | B2 |  |  |  |  |  |  | 18 ± 4 | 5.2 ± 2 | 290000 | 247 ± 60 | 2.1 ± 0.8 | 8000

Source: publication PMC4066437, “Oxidation of cellular amino acid pools leads to cytotoxic mistranslation of the genetic code” (eLife, 2014)
